According to patent US20140087995A1 (published 2014):
Numbered stars: 1 amine (or outer) side, 2 acyl side, 3 side chain; on linkers, the order of the positions; unused ones are H or OH. Bridge positions count the residues as written; N and C are the ends. Side chains are listed from the residue outwards. Ends that are not written are not given here. * marks the point of attachment. C20 diacid = O=C(O)CCCCCCCCCCCCCCCCCCC(=O)*; γGlu = O=C(O)[C@H](CCC(=O)[*:2])N[*:1]

T1: human calcitonin receptor (human, UniProt P30988 25-474)
T1 sequence (looked up): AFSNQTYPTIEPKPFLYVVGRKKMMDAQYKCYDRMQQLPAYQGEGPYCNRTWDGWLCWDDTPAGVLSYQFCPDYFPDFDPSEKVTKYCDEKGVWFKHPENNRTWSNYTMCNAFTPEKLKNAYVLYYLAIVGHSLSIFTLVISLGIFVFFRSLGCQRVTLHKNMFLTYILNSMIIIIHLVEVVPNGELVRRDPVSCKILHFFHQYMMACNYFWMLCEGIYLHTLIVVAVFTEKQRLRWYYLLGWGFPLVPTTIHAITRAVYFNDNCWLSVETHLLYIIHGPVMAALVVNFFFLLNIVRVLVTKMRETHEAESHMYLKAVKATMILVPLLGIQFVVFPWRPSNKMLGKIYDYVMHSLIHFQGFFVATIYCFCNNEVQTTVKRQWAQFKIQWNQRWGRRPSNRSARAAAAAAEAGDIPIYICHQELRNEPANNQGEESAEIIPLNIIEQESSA

B1: N{-1}-[(4S)-4-carboxy-4-(19-carboxynonadecanoylamino)butanoyl]-Gly[Arg1,His14,Arg17,Pro21,Pro27]-h-amylin (peptide)
peptide: {C20 diacid-γGlu}-GRCNTATCATQRLAHFLRHSSPNFGAIPSSTNVGSNTY-NH2
modifications: disulfide 3-8
SMILES: CC[C@H](C)[C@H](NC(=O)[C@H](C)NC(=O)CNC(=O)[C@H](Cc1ccccc1)NC(=O)[C@H](CC(N)=O)NC(=O)[C@@H]1CCCN1C(=O)[C@H](CO)NC(=O)[C@H](CO)NC(=O)[C@H](Cc1c[nH]cn1)NC(=O)[C@H](CCCNC(=N)N)NC(=O)[C@H](CC(C)C)NC(=O)[C@H](Cc1ccccc1)NC(=O)[C@H](Cc1c[nH]cn1)NC(=O)[C@H](C)NC(=O)[C@H](CC(C)C)NC(=O)[C@H](CCCNC(=N)N)NC(=O)[C@H](CCC(N)=O)NC(=O)[C@@H](NC(=O)[C@H](C)NC(=O)[C@@H]1CSSC[C@H](NC(=O)[C@H](CCCNC(=N)N)NC(=O)CNC(=O)CC[C@H](NC(=O)CCCCCCCCCCCCCCCCCCC(=O)O)C(=O)O)C(=O)N[C@@H](CC(N)=O)C(=O)N[C@@H]([C@@H](C)O)C(=O)N[C@@H](C)C(=O)N[C@@H]([C@@H](C)O)C(=O)N1)[C@@H](C)O)C(=O)N1CCC[C@H]1C(=O)N[C@@H](CO)C(=O)N[C@@H](CO)C(=O)N[C@H](C(=O)N[C@@H](CC(N)=O)C(=O)N[C@H](C(=O)NCC(=O)N[C@@H](CO)C(=O)N[C@@H](CC(N)=O)C(=O)N[C@H](C(=O)N[C@@H](Cc1ccc(O)cc1)C(N)=O)[C@@H](C)O)C(C)C)[C@@H](C)O
notes: N-terminal extension by Gly; synthetic peptide amide; also called compound 99
B2: N^-1-[(4S)-4-carboxy-4-(19-carboxynonadecanoylamino)butanoyl]-Gly[Arg1,His14,Arg17,Pro21,Pro27,His34]-h-amylin (peptide)
peptide: {C20 diacid-γGlu}-GRCNTATCATQRLAHFLRHSSPNFGAIPSSTNVGHNTY-NH2
modifications: disulfide 3-8
SMILES: CC[C@H](C)[C@H](NC(=O)[C@H](C)NC(=O)CNC(=O)[C@H](Cc1ccccc1)NC(=O)[C@H](CC(N)=O)NC(=O)[C@@H]1CCCN1C(=O)[C@H](CO)NC(=O)[C@H](CO)NC(=O)[C@H](Cc1c[nH]cn1)NC(=O)[C@H](CCCNC(=N)N)NC(=O)[C@H](CC(C)C)NC(=O)[C@H](Cc1ccccc1)NC(=O)[C@H](Cc1c[nH]cn1)NC(=O)[C@H](C)NC(=O)[C@H](CC(C)C)NC(=O)[C@H](CCCNC(=N)N)NC(=O)[C@H](CCC(N)=O)NC(=O)[C@@H](NC(=O)[C@H](C)NC(=O)[C@@H]1CSSC[C@H](NC(=O)[C@H](CCCNC(=N)N)NC(=O)CNC(=O)CC[C@H](NC(=O)CCCCCCCCCCCCCCCCCCC(=O)O)C(=O)O)C(=O)N[C@@H](CC(N)=O)C(=O)N[C@@H]([C@@H](C)O)C(=O)N[C@@H](C)C(=O)N[C@@H]([C@@H](C)O)C(=O)N1)[C@@H](C)O)C(=O)N1CCC[C@H]1C(=O)N[C@@H](CO)C(=O)N[C@@H](CO)C(=O)N[C@H](C(=O)N[C@@H](CC(N)=O)C(=O)N[C@H](C(=O)NCC(=O)N[C@@H](Cc1c[nH]cn1)C(=O)N[C@@H](CC(N)=O)C(=O)N[C@H](C(=O)N[C@@H](Cc1ccc(O)cc1)C(N)=O)[C@@H](C)O)C(C)C)[C@@H](C)O
notes: N-terminal extension by Gly; synthetic peptide amide; also called compound 100
B3: N^ε1-[(4S)-4-carboxy-4-[[(4S)-4-carboxy-4-(19-carboxynonadecanoylamino)butanoyl]amino]butanoyl]-[Glu14,Arg17,Pro21,Pro27,Pro34,Arg35]-h-amylin (peptide)
peptide: K([γGlu-γGlu-C20 diacid])CNTATCATQRLAEFLRHSSPNFGAIPSSTNVGPRTY-NH2
modifications: disulfide 2-7; N-terminus assumed
SMILES: CC[C@H](C)[C@H](NC(=O)[C@H](C)NC(=O)CNC(=O)[C@H](Cc1ccccc1)NC(=O)[C@H](CC(N)=O)NC(=O)[C@@H]1CCCN1C(=O)[C@H](CO)NC(=O)[C@H](CO)NC(=O)[C@H](Cc1c[nH]cn1)NC(=O)[C@H](CCCNC(=N)N)NC(=O)[C@H](CC(C)C)NC(=O)[C@H](Cc1ccccc1)NC(=O)[C@H](CCC(=O)O)NC(=O)[C@H](C)NC(=O)[C@H](CC(C)C)NC(=O)[C@H](CCCNC(=N)N)NC(=O)[C@H](CCC(N)=O)NC(=O)[C@@H](NC(=O)[C@H](C)NC(=O)[C@@H]1CSSC[C@H](NC(=O)[C@@H](N)CCCCNC(=O)CC[C@H](NC(=O)CC[C@H](NC(=O)CCCCCCCCCCCCCCCCCCC(=O)O)C(=O)O)C(=O)O)C(=O)N[C@@H](CC(N)=O)C(=O)N[C@@H]([C@@H](C)O)C(=O)N[C@@H](C)C(=O)N[C@@H]([C@@H](C)O)C(=O)N1)[C@@H](C)O)C(=O)N1CCC[C@H]1C(=O)N[C@@H](CO)C(=O)N[C@@H](CO)C(=O)N[C@H](C(=O)N[C@@H](CC(N)=O)C(=O)N[C@H](C(=O)NCC(=O)N1CCC[C@H]1C(=O)N[C@@H](CCCNC(=N)N)C(=O)N[C@H](C(=O)N[C@@H](Cc1ccc(O)cc1)C(N)=O)[C@@H](C)O)C(C)C)[C@@H](C)O
notes: synthetic peptide amide; also called compound 110
B4: N^ε1-[(4S)-4-carboxy-4-[[(4S)-4-carboxy-4-(19-carboxynonadecanoylamino)butanoyl]amino]butanoyl]-[Glu14,Arg17,Pro21,Pro27,Pro34,Phe37]-h-amylin (peptide)
peptide: K([γGlu-γGlu-C20 diacid])CNTATCATQRLAEFLRHSSPNFGAIPSSTNVGPNTF-NH2
modifications: disulfide 2-7; N-terminus assumed
SMILES: CC[C@H](C)[C@H](NC(=O)[C@H](C)NC(=O)CNC(=O)[C@H](Cc1ccccc1)NC(=O)[C@H](CC(N)=O)NC(=O)[C@@H]1CCCN1C(=O)[C@H](CO)NC(=O)[C@H](CO)NC(=O)[C@H](Cc1c[nH]cn1)NC(=O)[C@H](CCCNC(=N)N)NC(=O)[C@H](CC(C)C)NC(=O)[C@H](Cc1ccccc1)NC(=O)[C@H](CCC(=O)O)NC(=O)[C@H](C)NC(=O)[C@H](CC(C)C)NC(=O)[C@H](CCCNC(=N)N)NC(=O)[C@H](CCC(N)=O)NC(=O)[C@@H](NC(=O)[C@H](C)NC(=O)[C@@H]1CSSC[C@H](NC(=O)[C@@H](N)CCCCNC(=O)CC[C@H](NC(=O)CC[C@H](NC(=O)CCCCCCCCCCCCCCCCCCC(=O)O)C(=O)O)C(=O)O)C(=O)N[C@@H](CC(N)=O)C(=O)N[C@@H]([C@@H](C)O)C(=O)N[C@@H](C)C(=O)N[C@@H]([C@@H](C)O)C(=O)N1)[C@@H](C)O)C(=O)N1CCC[C@H]1C(=O)N[C@@H](CO)C(=O)N[C@@H](CO)C(=O)N[C@H](C(=O)N[C@@H](CC(N)=O)C(=O)N[C@H](C(=O)NCC(=O)N1CCC[C@H]1C(=O)N[C@@H](CC(N)=O)C(=O)N[C@H](C(=O)N[C@@H](Cc1ccccc1)C(N)=O)[C@@H](C)O)C(C)C)[C@@H](C)O
notes: synthetic peptide amide
B5: N^ε1-[(4S)-4-carboxy-4-[[(4S)-4-carboxy-4-(19-carboxynonadecanoylamino)butanoyl]amino]butanoyl]-[Ser14,Arg17,Pro21,Pro27,Pro34,Glu35]-h-amylin (peptide)
peptide: K([γGlu-γGlu-C20 diacid])CNTATCATQRLASFLRHSSPNFGAIPSSTNVGPETY-NH2
modifications: disulfide 2-7; N-terminus assumed
SMILES: CC[C@H](C)[C@H](NC(=O)[C@H](C)NC(=O)CNC(=O)[C@H](Cc1ccccc1)NC(=O)[C@H](CC(N)=O)NC(=O)[C@@H]1CCCN1C(=O)[C@H](CO)NC(=O)[C@H](CO)NC(=O)[C@H](Cc1c[nH]cn1)NC(=O)[C@H](CCCNC(=N)N)NC(=O)[C@H](CC(C)C)NC(=O)[C@H](Cc1ccccc1)NC(=O)[C@H](CO)NC(=O)[C@H](C)NC(=O)[C@H](CC(C)C)NC(=O)[C@H](CCCNC(=N)N)NC(=O)[C@H](CCC(N)=O)NC(=O)[C@@H](NC(=O)[C@H](C)NC(=O)[C@@H]1CSSC[C@H](NC(=O)[C@@H](N)CCCCNC(=O)CC[C@H](NC(=O)CC[C@H](NC(=O)CCCCCCCCCCCCCCCCCCC(=O)O)C(=O)O)C(=O)O)C(=O)N[C@@H](CC(N)=O)C(=O)N[C@@H]([C@@H](C)O)C(=O)N[C@@H](C)C(=O)N[C@@H]([C@@H](C)O)C(=O)N1)[C@@H](C)O)C(=O)N1CCC[C@H]1C(=O)N[C@@H](CO)C(=O)N[C@@H](CO)C(=O)N[C@H](C(=O)N[C@@H](CC(N)=O)C(=O)N[C@H](C(=O)NCC(=O)N1CCC[C@H]1C(=O)N[C@@H](CCC(=O)O)C(=O)N[C@H](C(=O)N[C@@H](Cc1ccc(O)cc1)C(N)=O)[C@@H](C)O)C(C)C)[C@@H](C)O
notes: synthetic peptide amide; also called compound 120
B6: N^ε1-[(4S)-4-carboxy-4-[[(4S)-4-carboxy-4-(19-carboxynonadecanoylamino)butanoyl]amino]butanoyl]-[Glu14,Arg17,Pro23,Pro34,Glu35]-h-amylin (peptide)
peptide: K([γGlu-γGlu-C20 diacid])CNTATCATQRLAEFLRHSSNNPGAILSSTNVGPETY-NH2
modifications: disulfide 2-7; N-terminus assumed
SMILES: CC[C@H](C)[C@H](NC(=O)[C@H](C)NC(=O)CNC(=O)[C@@H]1CCCN1C(=O)[C@H](CC(N)=O)NC(=O)[C@H](CC(N)=O)NC(=O)[C@H](CO)NC(=O)[C@H](CO)NC(=O)[C@H](Cc1c[nH]cn1)NC(=O)[C@H](CCCNC(=N)N)NC(=O)[C@H](CC(C)C)NC(=O)[C@H](Cc1ccccc1)NC(=O)[C@H](CCC(=O)O)NC(=O)[C@H](C)NC(=O)[C@H](CC(C)C)NC(=O)[C@H](CCCNC(=N)N)NC(=O)[C@H](CCC(N)=O)NC(=O)[C@@H](NC(=O)[C@H](C)NC(=O)[C@@H]1CSSC[C@H](NC(=O)[C@@H](N)CCCCNC(=O)CC[C@H](NC(=O)CC[C@H](NC(=O)CCCCCCCCCCCCCCCCCCC(=O)O)C(=O)O)C(=O)O)C(=O)N[C@@H](CC(N)=O)C(=O)N[C@@H]([C@@H](C)O)C(=O)N[C@@H](C)C(=O)N[C@@H]([C@@H](C)O)C(=O)N1)[C@@H](C)O)C(=O)N[C@@H](CC(C)C)C(=O)N[C@@H](CO)C(=O)N[C@@H](CO)C(=O)N[C@H](C(=O)N[C@@H](CC(N)=O)C(=O)N[C@H](C(=O)NCC(=O)N1CCC[C@H]1C(=O)N[C@@H](CCC(=O)O)C(=O)N[C@H](C(=O)N[C@@H](Cc1ccc(O)cc1)C(N)=O)[C@@H](C)O)C(C)C)[C@@H](C)O
notes: synthetic peptide amide

Molecular target: T1, human calcitonin receptor
Test: cell-based or functional assay

| Binder | hCTR funct. EC50 (pM) |
| --- | --- |
| B1 | 818 |
| B2 | 1730 |
| B3 | 8160 |
| B4 | 2140 |
| B5 | 887 |
| K([γGlu-γGlu-C20 diacid])CNTATCATQRLAEFLRHSSPNFGAILSSTPVGPETY-NH2 (disulfide 2-7, synthetic peptide amide) | 1280 |
| K([γGlu-γGlu-C20 diacid])CNTATCATQRLAEFLRHSSPNFGAIPSSTNVGPHTY-NH2 (disulfide 2-7 (inferred), synthetic peptide amide) | 2830 |
| B6 | 89600 |
